Laboratory results taken from the PETadex activity labels (doi:10.1016/j.ijbiomac.2025.149745).

Key:
PEF [1] = test: Proxy for plastic degradation [kcat] (s⁻¹); conditions: pH 9
PET [2] = test: Proxy for plastic degradation [kcat] (s⁻¹); conditions: pH 9
[3] = Proxy for plastic degradation [melting temperature]; conditions: pH 7
pNPB [4] = test: Proxy for plastic degradation [kcat/Km (catalytic efficiency)] (mM⁻¹s⁻¹); conditions: pH 7
pNPB [5] = test: Proxy for plastic degradation [PET preference ratio] (% relative activity); conditions: pH 7
PEF [6] = test: Proxy for plastic degradation [Released monomer concentration (HPLC/LC-MS) (FDCA + MHEF)] (s⁻¹); conditions: pH 9
PET [7] = test: Proxy for plastic degradation [Released monomer concentration (HPLC/LC-MS) (TPA+MHET+BHET)] (s⁻¹); conditions: pH 9

| Protein | Proxy for plastic degradation (PEF [1]) | Proxy for plastic degradation (PET [2]) | Proxy for plastic degradation [3] [°C] | Proxy for plastic degradation (pNPB [4]) | Proxy for plastic degradation (pNPB [5]) | Proxy for plastic degradation (PEF [6]) | Proxy for plastic degradation (PET [7]) | Proxy for plastic degradation (PEF [1]; part of the chain shown) | Proxy for plastic degradation (PET [2]; part of the chain shown) | Proxy for plastic degradation (pNPB [4]; part of the chain shown) | Proxy for plastic degradation (PEF [6]; part of the chain shown) | Proxy for plastic degradation (PET [7]; part of the chain shown) | Proxy for plastic degradation ([3]; part of the chain shown) [°C] |
| --- | --- | --- | --- | --- | --- | --- | --- | --- | --- | --- | --- | --- | --- |
| unnamed (protein) MDGVLWRVRTAALMAALLALAAWALWASPSVEAQSNPYQRGPNPTRSALTADGPFSVATYTVSRLSVSGFGGVIYYPTGTSLTFGGIAMSPGYTADASSLAWLGRRLASHGFVVLVINTNSRFDYPDSRASQLSAALNYLRTSSPSAVRARLDANRLAVAGHSMGGGGTLRIAEQNPSLKAAVPLTPWHTDKTFNTSVPVLIVGCEADTVAPVSQHAIPFYQNLPSTTPKVYVELDNASHFCPNSNNAAISVYTISWMKLWVDNDTRYRQFLCNVNDPALSDFRTNNRHCQCQ | 0.004 | 0.0031 | 82 | 335 |  |  |  |  |  |  |  |  |  |
| unnamed (protein) MDGVLWRVRTAALMAALLALAAWALWASPSVEAQSNPYQRGPNPTRSALTADGPFSVATYTVSRLSVSGFGGVIYYPTGTSLTFGGIAMSPGYTADASSLAWLGRRLASHGFVVLVINTNSRFDYPDSRASQLSAALNYLRTSSPSAVRARLDANRLAVAGWSMGGGGTLRIAEQNPSLKAAVPLTPWHTDKTFNTSVPVLIVGAEADTVAPVSQHAIPFYQNLPSTTPKVYVELDNASHFAPNSNNAAISVYTISWMKLWVDNDTRYRQFLCNVNDPALSDFRTNNRHCQCQ | 0.033 | 0.003 | 84.9 | 67 |  |  |  |  |  |  |  |  |  |
| unnamed (protein) MDGVLWRVRTAALMAALLALAAWALWASPSVEAQSNPYQRGPNPTRSALTADGPFSVATYTVSRLSVSGFGGVIYYPTGTSLTFGGIAMSPGYTADASSLAWLGRRLASHGFVVLVINTNSRFDYPDSRASQLSAALNYLRTSSPSAVRARLDANRLAVAGHSMGGGGTLRIAEQNPSLKAAVPLTPWHTDKTFNTSVPVLIVGAEADTVAPVSQHAIPFYQNLPSTTPKVYVELDNASHSAPNSNNAAISVYTISWMKLWVDNDTRYRQFLCNVNDPALSDFRTNNRHCQCQ | 0.085 | 0.035 | 85 | 175 |  |  |  |  |  |  |  |  |  |
| unnamed (protein) MDGVLWRVRTAALMAALLALAAWALWASPSVEAQSNPYQRGPNPTRSALTADGPFSVATYTVSRLSVSGFGGVIYYPTGTSLTFGGIAMSPGYTADASSLAWLGRRLASHGFVVLVINTNSRFDYPDSRASQLSAALNYLRTSSPSAVRARLDANRLAVAGWSMGGGGTLRIAEQNPSLKAAVPLTPWHTDKTFNTSVPVLIVGCEADTVAPVSQHAIPFYQNLPSTTPKVYVELDNASHSCPNSNNAAISVYTISWMKLWVDNDTRYRQFLCNVNDPALSDFRTNNRHCQCQ | 0.006 | 0.0045 | 82.5 | 2.8 |  |  |  |  |  |  |  |  |  |
| unnamed (protein) MDGVLWRVRTAALMAALLALAAWALWASPSVEAQSNPYQRGPNPTRSALTADGPFSVATYTVSRLSVSGFGGVIYYPTGTSLTFGGIAMSPGYTADASSLAWLGRRLASHGFVVLVINTNSRFDYPDSRASQLSAALNYLRTSSPSAVRARLDANRLAVAGHSMGGGGTLRIAEQNPSLKAAVPLTPWHTDKTFNTSVPVLIVGCEADTVAPVSQHAIPFYQNLPSTTPKVYVELDNASHSCPNSNNAAISVYTISWMKLWVDNDTRYRQFLCNVNDPALSDFRTNNRHCQCQ | 0.115 | 0.03 | 83 | 125 | 0 |  |  |  |  |  |  |  |  |
| unnamed (protein) MDGVLWRVRTAALMAALLALAAWALWASPSVEAQSNPYQRGPNPTRSALTADGPFSVATYTVSRLSVSGFGGVIYYPTGTSLTFGGIAMSPGYTADASSLAWLGRRLASHGFVVLVINTNSRFDYPDSRASQLSAALNYLRTSSPSAVRARLDANRLAVAGHSMGGGGTLRIAEQNPSLKAAVPLTPWHTDKTFNTSVPVLIVGAEADTVAPVSQHAIPFYQNLPSTTPKVYVELDNASHFAPNSNNAAISVYTISWMKLWVDNDTRYRQFLCNVNDPALSDFRTNNRHCQCQ | 0.005 | 0.01 | 85 | 398 |  |  |  |  |  |  |  |  |  |
| unnamed (protein) MDGVLWRVRTAALMAALLALAAWALWASPSVEAQSNPYQRGPNPTRSALTADGPFSVATYTVSRLSVSGFGGVIYYPTGTSLTFGGIAMSPGYTADASSLAWLGRRLASHGFVVLVINTNSRFDYPDSRASQLSAALNYLRTSSPSAVRARLDANRLAVAGWSMGGGGTLRIAEQNPSLKAAVPLTPWHTDKTFNTSVPVLIVGAEADTVAPVSQHAIPFYQNLPSTTPKVYVELDNASHSAPNSNNAAISVYTISWMKLWVDNDTRYRQFLCNVNDPALSDFRTNNRHCQCQ | 0.0175 | 0.018 | 84.5 | 28 |  |  |  |  |  |  |  |  |  |
| unnamed (protein) MNFPRASRLMQAAVLGGLMAVSAAATAQTNPYARGPNPTAASLEASAGPFTVRSFTVSRPSGYGAGTVYYPTNAGGTVGAIAIVPGYTARQSSIKWWGPRLASHGFVVITIDTNSTLDQPSSRSSQQMAALRQVASLNGTSSSPIYGKVDTARMGVMGHSMGGGGSLISAANNPSLKAAAPQAPWDSSTNFSSVTVPTLIFAAENDSIAPVNSSALPIYDSMSRNAKQFLEINGGSHFAANSGNSNQALIGKKGVAWMKRFMDNDTRYSTFACENPNSTRVSDFRTANCS | 0 | 0 | 39.5 | 2.1 | 0 | 0 | 0 |  |  |  |  |  |  |
| unnamed (protein) MNFPRASRLMQAAVLGGLMAVSAAATAQTNPYARGPNPTAASLEASAGPFTVRSFTVSRPSGYGAGTVYYPTNAGGTVGAIAIVPGYTARQSSIKWWGPRLASHGFVVITIDTNSTLDQPSSRSSQQMAALRQVASLNGTSSSPIYGKVDTARMGVMGWSMGGGGSLISAANNPSLKAAAPQAPWDSSTNFSSVTVPTLIFACENDSIAPVNSSALPIYDSMSRNAKQFLEINGGSHSCANSGNSNQALIGKKGVAWMKRFMDNDTRYSTFACENPNSTRVSDFRTANCS |  |  |  |  |  |  |  | 1.02 | 0.09 | 8.7 | 1 | 0.075 |  |
| unnamed (protein) MNFPRASRLMQAAVLGGLMAVSAAATAQTNPYARGPNPTAASLEASAGPFTVRSFTVSRPSGYGAGTVYYPTNAGGTVGAIAIVPGYTARQSSIKWWGPRLASHGFVVITIDTNSTLDQPSSRSSQQMAALRQVASLNGTSSSPIYGKVDTARMGVMGHSMGGGGSLISAANNPSLKAAAPQAPWDSSTNFSSVTVPTLIFACENDSIAPVNSSALPIYDSMSRNAKQFLEINGGSHSCANSGNSNQALIGKKGVAWMKRFMDNDTRYSTFACENPNSTRVSDFRTANCS | 0.17 | 0.03 | 48 | 45.8 |  | 0.2 | 0.03 |  |  |  |  |  |  |
| unnamed (protein) MNFPRASRLMQAAVLGGLMAVSAAATAQTNPYARGPNPTAASLEASAGPFTVRSFTVSRPSGYGAGTVYYPTNAGGTVGAIAIVPGYTARQSSIKWWGPRLASHGFVVITIDTNSTLDQPSSRSSQQMAALRQVASLNGTSSSPIYGKVDTARMGVMGWSMGGGGSLISAANNPSLKAAAPQAPWDSSTNFSSVTVPTLIFACENDSIAPVNSSALPIYDSMSRNAKQFLEINGGSHFCANSGNSNQALIGKKGVAWMKRFMDNDTRYSTFACENPNSTRVSDFRTANCS | 0.35 | 0.035 | 48.5 | 3.3 |  | 0.35 | 0.037 |  |  |  |  |  |  |
| unnamed (protein) MNFPRASRLMQAAVLGGLMAVSAAATAQTNPYARGPNPTAASLEASAGPFTVRSFTVSRPSGYGAGTVYYPTNAGGTVGAIAIVPGYTARQSSIKWWGPRLASHGFVVITIDTNSTLDQPSSRSSQQMAALRQVASLNGTSSSPIYGKVDTARMGVMGHSMGGGGSLISAANNPSLKAAAPQAPWDSSTNFSSVTVPTLIFACENDSIAPVNSSALPIYDSMSRNAKQFLEINGGSHFCANSGNSNQALIGKKGVAWMKRFMDNDTRYSTFACENPNSTRVSDFRTANCS |  |  |  |  |  |  |  | 0.08 | 0.013 | 22.8 | 0.11 | 0.012 | 47.9 |
| unnamed (protein) MNFPRASRLMQAAVLGGLMAVSAAATAQTNPYARGPNPTAASLEASAGPFTVRSFTVSRPSGYGAGTVYYPTNAGGTVGAIAIVPGYTARQSSIKWWGPRLASHGFVVITIDTNSTLDQPSSRSSQQMAALRQVASLNGTSSSPIYGKVDTARMGVMGWSMGGGGSLISAANNPSLKAAAPQAPWDSSTNFSSVTVPTLIFAAENDSIAPVNSSALPIYDSMSRNAKQFLEINGGSHSAANSGNSNQALIGKKGVAWMKRFMDNDTRYSTFACENPNSTRVSDFRTANCS | 0 | 0 | 40.4 | 0 | 0 | 0 | 0 |  |  |  |  |  |  |
